Data taken from patent US20230365662A1.
Positions count from the first letter of the chain named. Names and notes keep the numbering of the source. Values joined by “and” are separate entries in the source; they are usually repeats but may differ in a detail not shown here. Equal entries are not always repeated.

B1: KB001 parental mouse Fab VH variant A103V (Fab, V domains shown)
VH: EVQLKQSGPGLVAPSQSLSITCTVSGFSLSIYSVHWVRQPPGKGLEWLGMIWGGGSSDYNSALKSRLSISKDNSKSQVFLKMNSLQTDDTAMYYCARNGNFYVMDYWGQGTSVTVSS
VL: QIVLTQSPAIMSASLGERVTMTCTASSSVSSSFLHWYQQKPGSSPQLWIYSTSNLASGVPARFSGSGSGTSYSLTISSMEAEDAATYYCHQYHHSPYIYTFGGGTKLEIK
B2: KB001 parental mouse Fab VH variant Y106K (Fab, V domains shown)
VH: B1 VH with V103A, Y106K
VL: B1 VL
B3: KB001 parental mouse Fab (WT) (Fab, V domains shown)
VH: B1 VH with V103A
VL: B1 VL
B4: KB001 parental mouse Fab VH variant Y106D (Fab, V domains shown)
VH: B1 VH with V103A, Y106D
VL: B1 VL
B5: KB001 parental mouse Fab VH variant A103I (Fab, V domains shown)
VH: B1 VH with V103I
VL: B1 VL
B6: KB001 parental mouse Fab VH variant Y106Q (Fab, V domains shown)
VH: B1 VH with V103A, Y106Q
VL: B1 VL
B7: KB001 parental mouse Fab VH variant A103C (Fab, V domains shown)
VH: B1 VH with V103C
VL: B1 VL
B8: KB001 parental mouse Fab VH variant Y106I (Fab, V domains shown)
VH: B1 VH with V103A, Y106I
VL: B1 VL
B9: KB001 parental mouse Fab VH variant Y106H (Fab, V domains shown)
VH: B1 VH with V103A, Y106H
VL: B1 VL
B10: KB001 parental mouse Fab VH variant M104V (Fab, V domains shown)
VH: B1 VH with V103A, M104V
VL: B1 VL
B11: KB001 parental mouse Fab VH variant A103M (Fab, V domains shown)
VH: B1 VH with V103M
VL: B1 VL
B12: KB001 parental mouse Fab VH variant M104L (Fab, V domains shown)
VH: B1 VH with V103A, M104L
VL: B1 VL
B13: KB001 parental mouse Fab VH variant A103L (Fab, V domains shown)
VH: B1 VH with V103L
VL: B1 VL
B14: KB001 parental mouse Fab VH variant Y106W (Fab, V domains shown)
VH: B1 VH with V103A, Y106W
VL: B1 VL
B15: KB001 parental mouse Fab VH variant A103K (Fab, V domains shown)
VH: B1 VH with V103K
VL: B1 VL

These binders were tested against HRgpA-6H (Porphyromonas gingivalis) (UniProt P28784) (assay: ELISA, Fab FASEBA supernatant on coated HRgpA-6H (0.0625 ug/ml)).
Sequence of UniProt P28784 (P28784 228-991 limits assumed): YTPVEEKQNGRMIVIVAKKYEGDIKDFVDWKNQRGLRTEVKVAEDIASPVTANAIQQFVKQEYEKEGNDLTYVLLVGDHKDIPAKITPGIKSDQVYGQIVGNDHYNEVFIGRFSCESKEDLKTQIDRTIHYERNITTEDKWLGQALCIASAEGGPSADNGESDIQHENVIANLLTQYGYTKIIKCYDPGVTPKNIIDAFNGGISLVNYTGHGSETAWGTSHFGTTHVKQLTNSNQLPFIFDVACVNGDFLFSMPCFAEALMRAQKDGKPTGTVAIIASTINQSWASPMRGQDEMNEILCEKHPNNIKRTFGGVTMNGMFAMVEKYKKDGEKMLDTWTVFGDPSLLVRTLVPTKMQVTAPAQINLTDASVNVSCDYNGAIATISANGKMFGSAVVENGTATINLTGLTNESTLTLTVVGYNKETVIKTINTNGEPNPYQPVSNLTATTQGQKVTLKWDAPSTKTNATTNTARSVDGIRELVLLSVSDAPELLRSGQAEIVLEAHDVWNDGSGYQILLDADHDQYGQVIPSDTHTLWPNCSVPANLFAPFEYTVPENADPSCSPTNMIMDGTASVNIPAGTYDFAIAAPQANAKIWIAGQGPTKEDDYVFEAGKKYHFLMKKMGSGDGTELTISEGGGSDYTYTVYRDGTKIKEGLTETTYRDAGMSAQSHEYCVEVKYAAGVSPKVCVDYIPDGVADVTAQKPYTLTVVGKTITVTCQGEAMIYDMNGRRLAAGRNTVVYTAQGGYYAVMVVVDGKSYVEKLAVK

With B1 the OD450nm was 0.849 and 0.807.
In the case of B5, the OD450nm is reported as 0.695 and 0.693.
With B8 the OD450nm was 0.73 and 0.728 and 0.764.
In the case of B14, the OD450nm is reported as 0.733 and 0.748.

In the case of B1, the Ratio OD(Variant)/OD(WT) is reported as 0.985 and 0.936.
In the case of B5, the Ratio OD(Variant)/OD(WT) is reported as 0.806 and 0.804.
For B8, the Ratio OD(Variant)/OD(WT) was 0.949 and 0.947 and 0.993.
B14 was tested, and the Ratio OD(Variant)/OD(WT) was 0.953 and 0.973.

First: B2
Second: B3
The OD450nm of the first is lower: 0.767 for the first, 0.831 for the second.

Compared with B4, B6 is higher in OD450nm: 0.675 for the first, 0.768 for the second.

Going from B7 to B9, the OD450nm falls from 0.77 to 0.722.

Compared with B10, B11 is higher in OD450nm: 0.654 for the first, 0.811 for the second.

First: B12
Second: B13
The OD450nm of the first is higher: 0.786 for the first, 0.783 for the second.

With B15 the OD450nm was 0.723.

First: B2
Second: B3
The Ratio OD(Variant)/OD(WT) of the first is higher: 0.997 for the first, 0.956 for the second.

First: B4
Second: B6
The Ratio OD(Variant)/OD(WT) of the first is lower: 0.878 for the first, 0.999 for the second.

First: B7
Second: B9
The Ratio OD(Variant)/OD(WT) of the first is lower: 0.893 for the first, 0.939 for the second.

Going from B10 to B11, the Ratio OD(Variant)/OD(WT) rises from 0.85 to 0.941.

First: B12
Second: B13
The Ratio OD(Variant)/OD(WT) of the first is lower: 0.904 for the first, 0.908 for the second.

B15 was tested, and the Ratio OD(Variant)/OD(WT) was 0.839.
